Source: CN115536747A

Biological target: 人TROP2 on cells (表达TROP2的CHO细胞系; MCF, MDA-MB-231, MDA-MB-468, HCC1395 breast cancer cells) (human) (UniProt P09758)
Experiment: flow cytometry, scFv-Fc on CHO cells expressing TROP2

Chain of UniProt P09758 (P09758 27-323): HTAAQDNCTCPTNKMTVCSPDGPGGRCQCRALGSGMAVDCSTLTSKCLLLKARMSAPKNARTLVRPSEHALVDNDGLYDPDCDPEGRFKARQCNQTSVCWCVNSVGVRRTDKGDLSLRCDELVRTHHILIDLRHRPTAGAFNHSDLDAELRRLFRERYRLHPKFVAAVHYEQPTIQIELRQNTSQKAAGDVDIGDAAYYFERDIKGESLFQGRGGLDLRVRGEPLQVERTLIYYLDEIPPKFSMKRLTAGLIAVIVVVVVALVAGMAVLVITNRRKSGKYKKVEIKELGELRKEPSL

- 阳性百分数: 89.3%
B1: 1F7 scFv-Fc蛋白 (from pFH-1F7; scFv fused to human IgG4 Fc) (Fc fusion, not shown: a dimerising Fc or GST)
chain: QVQLVQSGAEVKKPGASVKVSCKASGYTFTSYGINWVRQATGRGLEWMGWMNPNSGNTGYAQKFQGRVTITADESTSTAYMELSSLRSEDTAVYYCARPNTGGDGAFDIWGQGTMVTVSSGGSSRSSSSGGGGSGGGGDIQLTQSPSSVSASVGDRVTITCRASQGISSWLAWYRQKPGKAPKLLIYAASSLQSGVPSRFSGSGSGTDFTLTISSLQPEDFATYYCQQANSFPITFGQGTRLEIK
